One molecule from publication PMC9142731 (Virology Journal, 2022) can be followed below.

What all share (conditions): both partners purified
Experiment [1] deals with T1, 229E nucleocapsid protein, recombinant (Human coronavirus 229E (HCoV-229E)., UniProt P15130).
T1 construct: also called 229E NP; source: bought: Sino Biological

Experiment [2] addresses T2, SARS-CoV nucleocapsid protein, recombinant (Severe acute respiratory syndrome …, UniProt P59595).
T2 construct: also called SARS-CoV NP; source: bought: Sino Biological

Experiment [3] deals with T3, SARS-CoV-2 nucleocapsid protein (WT), recombinant (Severe acute respiratory syndrome …, UniProt P0DTC9).
T3 construct: also called SARS-CoV-2 NP; WT NP; source: bought: Sino Biological; not shown: His tag, C-terminal, kept
The experiment can be described thus: SPR. A general note: SPR reads the build-up and loss of mass on a sensor chip optically.

Experiment [4] concerns the target T4, HKU1 nucleocapsid protein, recombinant (Human coronavirus HKU1 (isolate N1) …, UniProt Q5MQC6).
T4 construct: also called HKU1 NP; source: bought: Sino Biological
Description: ELISA.

For experiment [5], the target named is T5, NL63 nucleocapsid protein, recombinant (Human coronavirus NL63 (HCoV-NL63)., UniProt Q6Q1R8).
T5 construct: also called NL63 NP; source: bought: Sino Biological
Description: ELISA. (In general: An ELISA detects its analyte on a solid surface through an enzyme-linked reagent.)

The target in experiment [6] is T6, MERS-CoV nucleocapsid protein, recombinant (MERS-CoV, strain , UniProt K9N4V7).
T6 construct: also called MERS-CoV NP; source: bought: Sino Biological
Description: ELISA.

Experiment [7] concerns the target T7, OC43 nucleocapsid protein, recombinant (Human coronavirus OC43 (HCoV-OC43)., UniProt P33469).
T7 construct: also called OC43 NP; source: bought: Sino Biological
Description: ELISA.

B1: P301-F7 (antibody, V domains shown)
VH: QLQLQESGPGLVKPSETLSLTCTVSGGSISSTSYYWGWIRQPPGKGLEWIGSIYYSGSTYYNPSLKSRVTISVDTSKNQFSLKLSSVTAADTAVYYCARFSLYCSSTSCYENWFDPWGQGTLVTVSS
VL: QSVLTQPPSVSAAPGQKVTISCSGSSSNIGNNYVSWYQQLPGTAPKLLIYDNNKRPSGIPDRFSGSKSGTSATLGITGLQTGDEADYYCGTWDSSLSAGQVVFGGGTKLTVL
notes: source: 293 F cells, transient transfection, purified (Protein A beads)
Usually Kd stands for a measure of binding affinity in units of concentration. For B1, the binding result in experiment [1], in experiment [4], in experiment [5], in experiment [6] and in experiment [7] was “no binding” each time. Also, the values for the Kd in experiment [2] and in experiment [3] were 14.9 nM and 13.3 nM, respectively.
